In general, Km refers to the concentration of substrate that gives half-maximal velocity. In general, stoichiometry N refers to the number of molecules, sites or subunits per partner or assembly. The kcat is the number of substrate molecules converted per active site and unit of time at saturation. One may read the kcat/Km as the turnover number divided by the Michaelis constant.

This note sets out measurements from PMC5770610, “Structure and function of urea amidolyase” (Bioscience Reports, 2018).

In one data set the target is T1, KlAH (Kluyveromyces lactis, UniProt Q6CP22).
T1 construct: gene KLLA0_E08119g; isolated allophanate hydrolase (AH) part, N and C domains, N-terminal part of KlUA; recombinant; homodimer
The data set can be described thus: glutamate dehydrogenase-coupled NADH assay of ammonium. Format: biochemical. The settings on record: AH activity; 6 mM MgCl2, 20 mM KCl, pH 8.0; substrate as potassium salt; read-out: Km^1. The text has this: glutamate dehydrogenase-coupled NADH assay of ammonium on KlAH

Data set [1] concerns the molecule itself. The experiment in a line: SEC; analytical gel filtration, Superose 6 HR column; 0.25 mg protein injected; 20 mM Tris/HCl pH 8.0, 200 mM NaCl; calibrated with standards of 29-669 kDa. (In general: SEC sorts molecules by how far they enter the pores of the column.)
Substrate in data set [2]: NC(=O)NC(=O)O
The data set can be described thus: glutamate dehydrogenase-coupled NADH assay of ammonium. Format: biochemical, Kluyveromyces lactis. The settings on record: AH activity, 6 mM MgCl2, 20 mM KCl, pH 8.0, substrate as potassium salt. The text has this: (§1) glutamate dehydrogenase-coupled NADH assay of ammonium on KlUA

Substrate in data set [3]: NC(N)=O
The data set is described as above. Format: biochemical, Kluyveromyces lactis. The conditions noted are these: overall UA activity, 5 mM ATP, 12.5 mM bicarbonate, 11 mM MgCl2, 20 mM KCl, pH 8.0.
Source text: as §1

As to `NC(=O)NC(=O)O` [allophanate], on KlAH, the Michaelis-Menten constant (Km) was 432 ± 60 µM.

B1: KlUAΔBCCP (Kluyveromyces lactis urea amidolyase residues 1-1741, BCCP domain removed) (domain or fragment, UniProt Q6CP22 1-1741, looked up)
chain: MESTLGWSVQDWLSFHSKSTPTKSLELLENLLKSQKPAPEDPAWISLIPVEDLHHQWNILQSKSNKEELPLYGVPIAVKDNIDYKGLPTTAACPSYLYQPTRDSYVVELLRDAGAVVIGKTNLDQFATGLVGTRSPYGKTPCVFNDKYVSGGSSAGSASVVGRGIVPLSLGTDTAGSGRVPAALNNLIGLKPTKGAFSCRGVVPACKSLDCVSVFALNLSDAEIAFKVMNKPDLLEDEYSREFPKNPISQYPKDLTIAIPKEVPWFGETENPKLYTKAVASLKNTGAKIVVVDFEPLLELARCLYEGAWVAERYCATRDFLATNPPESSLDETVVNIIKGAVKFDAADAFKFEYKRQGILQKVNLLLKDIDVLCVPTCPLNPKLEEVAQEPVLVNSRQGTWTNFVNLADLAALAVPSGFRSDGLPNGITLIGKKFSDYALLDLAKRFFSVAFPNNSRTYGKFVDRRITVEDELDGPSKDTLNGVKLAVVGAHLKGLPLHWQLQKCNATYLSSPKTSNNYKLYALPKVGPVLKPGLRRVNDGTGSQIQLEVYSVPYDRFGDFIAMVPEPLGIGSVELESGEWVKSFICEEFGYTQQGTVDITKFGGFKPYIEHIQVTEAQKKKPFETVLIANRGEIAVRIMKTLKRMGIKSVAVYSDPDKYSQHVTDADFSVALHGRTAAETYLDIDKIINAAKKTGAQAIIPGYGFLSENADFSDRCSQENIVFVGPSGDAIRKLGLKHSAREIAERAKVPLVPGSGLIKDAKEAKEVAKKLEYPVMVKSTAGGGGIGLQKVDSEDDIERVFETVQHQGKSYFGDAGVFMERFVNNARHVEIQMMGDGFGKAIAIGERDCSLQRRNQKVIEETPAPNLPEATRAKMRAASERLGSLLKYKCAGTVEFIYDEQRDEFYFLEVNARLQVEHPITEMVTGLDLVEWMLRIAANDSPDFDNTKIEVSGASIEARLYAENPVKDFRPSPGQLTSVSFPSWARVDTWVKKGTNVSAEYDPTLAKIIVHGKDRNDAIMKLNQALNETAVYGCITNIDYLRSIASSKMFKEAKVATKVLDSFDYKPCAFEVLAPGANTSVQDYPGRTGYWRIGVPPSGPMDSYSFRLANRVVGNNSKSPALEITLNGPKLLFHTETVIAVSGGTVSCTLNDAQIAQNEPIEVKRGDILSVGKVTVGCRAYLSIRGGIDVPEYLGSRSTFAMGNMGGYNGRILKLGDVLFLNQPELSVSSLPAPDFEPQAAPKSLLPTLSTNKDWKIGVTCGPHGSIDLFKEEYIEQFFNDKWKVHYNSNRFGVRLIGPKPKWARSDGGEAGLHPSNAHDYVYSLGAINFTGDEPVIITCDGPSLGGFVCQAVVAEAELWKVGQLTPGDTIQFVPLSYGVARQLKESQDKSIDNFEEGSLLELSDDKILPKYENPILAVLPKKSDLSPKVTYRQAGDRYILVEYGELEFDLNICYRINRLIHQVERHQTVGIVEMSQGVRSVLIEFDGSKINQKALLKCLIAYESEIQFDKNWNVKSKIFKLPMAFEDSKTLDCVTRYRETIRSEAPWLPNNVDFIADVNDIDRNDVKNMLYSAKFMVLGLGDVFLGSPCAVPLDPRHRYLGTKYNPSRTYTARGVVGIGGMYMCIYNAEGSPGGYQLVGRTITAWDKLVIGDHPIDHPWLLTPFDQVEFYPVTEEELEVIIEDNDNGKFKIDVEESIFDHKEYLAWINENIDSIVAFQEAQGGEKADEFARLIQVANAE
notes: urea amidolyase of Kluyveromyces lactis, residues 1-1741 (stop codon inserted after base pair 5223); lacks the C-terminal BCCP domain; monomer 190 kDa; also called KIUAΔBCCP; source: E. coli BL21 (DE3) Star, purified (Ni-NTA, anion exchange, size exclusion)
As for B1, the “stoichiometry N” value in data set [1] stood at 2.

B2: Kluyveromyces lactis urea amidolyase, full length (enzyme, UniProt Q6CP22 1-1829, looked up)
chain: MESTLGWSVQDWLSFHSKSTPTKSLELLENLLKSQKPAPEDPAWISLIPVEDLHHQWNILQSKSNKEELPLYGVPIAVKDNIDYKGLPTTAACPSYLYQPTRDSYVVELLRDAGAVVIGKTNLDQFATGLVGTRSPYGKTPCVFNDKYVSGGSSAGSASVVGRGIVPLSLGTDTAGSGRVPAALNNLIGLKPTKGAFSCRGVVPACKSLDCVSVFALNLSDAEIAFKVMNKPDLLEDEYSREFPKNPISQYPKDLTIAIPKEVPWFGETENPKLYTKAVASLKNTGAKIVVVDFEPLLELARCLYEGAWVAERYCATRDFLATNPPESSLDETVVNIIKGAVKFDAADAFKFEYKRQGILQKVNLLLKDIDVLCVPTCPLNPKLEEVAQEPVLVNSRQGTWTNFVNLADLAALAVPSGFRSDGLPNGITLIGKKFSDYALLDLAKRFFSVAFPNNSRTYGKFVDRRITVEDELDGPSKDTLNGVKLAVVGAHLKGLPLHWQLQKCNATYLSSPKTSNNYKLYALPKVGPVLKPGLRRVNDGTGSQIQLEVYSVPYDRFGDFIAMVPEPLGIGSVELESGEWVKSFICEEFGYTQQGTVDITKFGGFKPYIEHIQVTEAQKKKPFETVLIANRGEIAVRIMKTLKRMGIKSVAVYSDPDKYSQHVTDADFSVALHGRTAAETYLDIDKIINAAKKTGAQAIIPGYGFLSENADFSDRCSQENIVFVGPSGDAIRKLGLKHSAREIAERAKVPLVPGSGLIKDAKEAKEVAKKLEYPVMVKSTAGGGGIGLQKVDSEDDIERVFETVQHQGKSYFGDAGVFMERFVNNARHVEIQMMGDGFGKAIAIGERDCSLQRRNQKVIEETPAPNLPEATRAKMRAASERLGSLLKYKCAGTVEFIYDEQRDEFYFLEVNARLQVEHPITEMVTGLDLVEWMLRIAANDSPDFDNTKIEVSGASIEARLYAENPVKDFRPSPGQLTSVSFPSWARVDTWVKKGTNVSAEYDPTLAKIIVHGKDRNDAIMKLNQALNETAVYGCITNIDYLRSIASSKMFKEAKVATKVLDSFDYKPCAFEVLAPGANTSVQDYPGRTGYWRIGVPPSGPMDSYSFRLANRVVGNNSKSPALEITLNGPKLLFHTETVIAVSGGTVSCTLNDAQIAQNEPIEVKRGDILSVGKVTVGCRAYLSIRGGIDVPEYLGSRSTFAMGNMGGYNGRILKLGDVLFLNQPELSVSSLPAPDFEPQAAPKSLLPTLSTNKDWKIGVTCGPHGSIDLFKEEYIEQFFNDKWKVHYNSNRFGVRLIGPKPKWARSDGGEAGLHPSNAHDYVYSLGAINFTGDEPVIITCDGPSLGGFVCQAVVAEAELWKVGQLTPGDTIQFVPLSYGVARQLKESQDKSIDNFEEGSLLELSDDKILPKYENPILAVLPKKSDLSPKVTYRQAGDRYILVEYGELEFDLNICYRINRLIHQVERHQTVGIVEMSQGVRSVLIEFDGSKINQKALLKCLIAYESEIQFDKNWNVKSKIFKLPMAFEDSKTLDCVTRYRETIRSEAPWLPNNVDFIADVNDIDRNDVKNMLYSAKFMVLGLGDVFLGSPCAVPLDPRHRYLGTKYNPSRTYTARGVVGIGGMYMCIYNAEGSPGGYQLVGRTITAWDKLVIGDHPIDHPWLLTPFDQVEFYPVTEEELEVIIEDNDNGKFKIDVEESIFDHKEYLAWINENIDSIVAFQEAQGGEKADEFARLIQVANAELKKSGDDKPQDVEEYPDDAELLYSEYTGRFWKPVAAVGDHVEAGDGVIIIEAMKTEMVVGATKSGKVYKILHKNGDMVEAGDLVAVIV
notes: urea amidolyase (AH domain followed by UC domain: BC, CT, BCCP) of Kluyveromyces lactis, gene amplified from the K. lactis genome; monomer 202 kDa; also called KlUA; full-length KlUA; source: expression and purification followed protocols reported previously [14,17]; purified
Take B2: in data set [2], the Km was found to be 360 ± 37 µM, the catalytic constant (kcat) is 34.2 ± 0.683 s⁻¹ and the kcat/Km was found to be 94900 ± 11700 M⁻¹ s⁻¹. Further, in data set [3], the Km is 255 ± 18 µM, the catalytic constant (kcat) came out at 13.9 ± 0.183 s⁻¹ and the catalytic efficiency (kcat/Km) stood at 54600 ± 4600 M⁻¹ s⁻¹. Further, in data set [1], the “stoichiometry N” value came to 2.
